Assay results published in publication PMC11325161.
pEC50: −log10 of the molar value.

Target: SARS-CoV-2 nsp12 wild type (SARS-CoV-2) (UniProt P0DTD1)
Assay: MST
Conditions: complex

“subcomplex of wt nsp7, wt nsp8 and dsRNA (1:2:1) (from UniProt P0DTD1)” showed a pEC50 of 7.90.
